Assay results as given in patent publication US20110286916A1 (published 2011).
Changes are numbered by the printed parent chain.

B1: N1wc112 (scFv, V domains shown)
VH: EVQLVESGGGLAQPGKSLRISCAASGFTFGDYAMTWVRQAPGKGLEWVSSISGSGSGTYYTDSVKGRFAISRDNSKNTLYPQMNSLAAEDTAIYFCAKDQTDVTIRDFDYWGRGTLVTVSS
VL: SYELTQPPSVSVAPGQTARISCGGDNLGRKSVHWYQQKPGQAPVLVIYEDSKRPSGIPERFSGSSSGTMATLTISGAQVEDEADYYCYSTDSSGNHRVFGGGTKVTVL
notes: phage scFv
B2: N1wc106 (scFv, V domains shown)
VH: QVQLVQSGAEVKRPGASVNLSCKASGYSFSRYYIHWVRQAPGQGLELMGRINPGGGTTTYAQKFQGRVTLSRDTSTNTIFMELNGLTSEDTAMYYCARSNYDILAGYGPDAFDFWGRGTLVTVSS
VL: QAVLTQPSSVSGAPGQRVTISCTGSSSNIGADNDVHWYQKFPGTAPKLLIFSNNNRPSGVPDRFSGSKSGTSASLAITGLQADDEADYYCQSYDSGLTRELFGGGTKLTVL
notes: phage scFv
B3: N1wc142 (scFv, V domains shown)
VH: B2 VH with Q1E, R13K, L120M
VL: QSVLTQPPSVSGAPGQRVTISCIGSNSNIGAGHDVHWYQQFPGTAPKLLIYDNTNRPSGVPDRFSGSKSGTSVSLAITGLQAEDEADYYCQSYDSSLGEVFGGGTKLTVL
notes: phage scFv
B4: N1wc140 (scFv, V domains shown)
VH: QVQLQQSGAEVKKPGSSVKVSCRASGGTFSNYAISWVRQAPGQGLEWMGRIIPIFGGAHYAQKLQGRVSITADESTSTAHMELSSLRSEDAAVYYCASGAYYDVMGNYPYSGMDVWGRGTLVTVSS
VL: SYVLTQPPSVSVSPGQTAKITCGGDKIETKSVHWYQQKPGQAPVLVIYEDTKRPSGISERLSGSSAGTVATLTITGAQVDDEADYFCYSTDATGTERVFGGGTKLTVL
notes: phage scFv
B5: hN1S3-146 (scFv, V domains shown)
VH: EVQLVQSGPEVKKPGTSVKVSCKASGFTFTSSAVQWVRQARGQRLEWIGWIVVGSGNTNYAQKFQERVTITRDMSTSTAYMELSSLRSEDTAVYYCVADTVYWGKGTLVTVSS
VL: QAVLTQPSSVSEAPRQRVTISCSGSSSNIGKNAVNWYQQLPGKAPKLLIYYDDLMPSGVSDRFSGSKSGTSASLAISGLQSEDEADYFCAAWDDSLSGWVFGGGTKLTVL
notes: phage scFv
B6: N1wc157 (scFv, V domains shown)
VH: QVQLVQSGAGLKRPGTSVKISCKTSGYIFSQYPMHWVRQAPGQGLEWVAWVDTGNGTTRYSPNFQGRATVSGDTSANTGYLELRSLRFTDTAVYYCATNAFDYWGRGTLVTVSS
VL: SYELTQPPSVSVSPGQTARITCSGDALPDKYVHWYQQKSGQAPVLVLFDDSKRPSGIPERFSGSSSGTVATLIISGAQVEDEGDFFCYSTDSSGNERVFGGGTKLTVL
notes: phage scFv
B7: N1wc48 (scFv, V domains shown)
VH: QVQLVQSGAEVKKPGATVKISCKVSGYTFTDYYIHWVQQAPGKGLEWMGLVDPEDGETIYAEKFQGRVTIIADTSTDTAYMELSSLRSEDTAVYYCATGPFRLDSWGQGTMVTVSS
VL: QSVLTQPPSVSGAPGQRVTISCTGSSSNIGAGYDVHWYQQLPGSAPKLLIYGNNNRPSGVPDRFSGSKSGTSASLAITGLQAEDEADYYCQSFDNRLSDFNVFGTGTKVTVL
notes: phage scFv
B8: N1wc104 (scFv, V domains shown)
VH: QVQLQESGPGLVKPSGTLSLTCAVSGVSLATNNWWLWVRQSPGKGLEWIGEIYHSGYTNYNPSLKSRVTISVDKSSNQLSLDLRSITAADTAVYYCARRYCDNGVCYPFDHWGQGTMVTVSS
VL: SYVLTQPPSVSEAPRQTVTISCSGNSFNIGRYPVNWYQQLPGKAPKLLIYYNNLRFSGVSDRFSGSKSGTSASLAIRDLLSEDEADYYCSTWDDTLKGWVFGGGTKLTVL
notes: phage scFv
B9: N1wc158 (scFv, V domains shown)
VH: EVQLVQSGAEVKKPGASVKVSCKASGYNFTGYYMHWVRQAPGQGLEWMGWINPNSGGTNYAQKFQGRVTMTRDTSISTAYMELSRLRSDDTAVYYCATDSFDYWGRGTLVTVSS
VL: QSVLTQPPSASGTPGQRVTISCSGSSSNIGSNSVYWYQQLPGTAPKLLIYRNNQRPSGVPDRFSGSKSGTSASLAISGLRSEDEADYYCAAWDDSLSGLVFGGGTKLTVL
notes: phage scFv
B10: N1wc103 (scFv, V domains shown)
VH: B9 VH with E1Q, V5Q, M81V
VL: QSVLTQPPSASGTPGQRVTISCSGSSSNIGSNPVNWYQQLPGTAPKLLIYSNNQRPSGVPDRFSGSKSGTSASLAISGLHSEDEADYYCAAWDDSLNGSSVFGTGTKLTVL
notes: phage scFv
B11: N1wc110 (scFv, V domains shown)
VH: B9 VH with R106Q, L109M
VL: QSVVTQPPSASGSPGQRVTIACSGSSSNIGSNTVNWYQHVPGTAPKLLIYNNNQRPSGVQDRFSGSKSDTSASLAISGLQAEDEAVYYCATWDDSLIGLAFGGGTKLTVL
notes: phage scFv
B12: hN1S3-126 (scFv, V domains shown)
VH: B9 VH with R106Q
VL: SYVLTQPPSASGAPGQRVTISCSGSISNIGDNTVNWYQHLPRTAPKLVIYSDVQRPSGVPERFSGSKSGTSASLVISGLQAEDEADYYCASWDDSLDGVFFGGGTKLTVL
notes: phage scFv
B13: hN1S3-050 (scFv, V domains shown)
VH: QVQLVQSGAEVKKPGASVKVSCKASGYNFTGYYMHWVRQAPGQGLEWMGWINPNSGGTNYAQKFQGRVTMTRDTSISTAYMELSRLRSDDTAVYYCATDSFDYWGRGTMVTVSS
VL: LPVLTQPPSASGTPGQRVTISCSGRSSNIGSNFVYWYQQLPGTAPKLLIYRNNQRPSGVPDRFSGSKSGTSASLAISGLRSEDEADYYCATWDDNLSGVVFGGGTKLTVL
notes: phage scFv
B14: hN1S3-010 (scFv, V domains shown)
VH: B9 VH with T69I, R87T, L109M
VL: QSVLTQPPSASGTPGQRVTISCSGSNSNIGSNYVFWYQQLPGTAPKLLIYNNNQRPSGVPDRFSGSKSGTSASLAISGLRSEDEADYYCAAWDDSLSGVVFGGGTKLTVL
notes: phage scFv
B15: hN1S3-113 (scFv, V domains shown)
VH: B9 VH
VL: SYVLTQPPSASGTPGQRVTISCSGSSPNIGSNTVNWYQQLPGTAPKLLIYTNNQRPSGVPDRFSGSKSATSASLAISGLQFDDEADYFCAAWDDSLLGVVFGGGTKVTVL
notes: phage scFv
B16: hN1S3-174 (scFv, V domains shown)
VH: B9 VH with R106Q, L109T
VL: QSVLTQPPSVSGAPGQRITISCTGSSSNIGAGYDVHWYQQLPGTAPKLLIYGNSYRPSGVPDRFSGSKSGTSASLAITGLQAEDEADYYCQSYDSSLTGSIFGGGTKLTVL
notes: phage scFv
B17: N1wc152 (scFv, V domains shown)
VH: QVQLVQSGGGLVQPGGSLRLSCGASGFTFSSHWMSWVRRPPGRGLEWVANINEGGSAEYYADSLKGRFTISRDNAKNSLFLQMDSLRAEDTAVYYCVRDQFHSNYDWGQGTMVTVSS
VL: QAVLTQPSSVSGAPGQRVTISCTGSSSNIGAPFDVHWYQQLPGTAPKLLIYGNSNRPSGVPDRFSGSKFGTSASLAITGLQAADEADYYCQSYDSSLSGWVFGGGTKLTVL
notes: phage scFv
B18: N1wc99 (scFv, V domains shown)
VH: QVQLVQSGAEVKKPGASVKVSCKASGYTFTSYGISWVRQAPGQGLEWMGWISAYNGNTNYAQKLQGRVTMTTDTSTSTAYMELRSLRSDDTAVYYCARLASRAFDIWGRGTLVTVSS
VL: QSVLTQPASVSGSPGQSITISCTGTSSDVGGYNYVSWYQQHPGKAPKLMIYEGSKRPSGVSNRFSGSKSGNTASLTISGLQAEDEADYYCSSYTTRSTRVFGGGTKLTVL
notes: phage scFv
B19: N1wc145 (scFv, V domains shown)
VH: B18 VH with Q1E, Q6E, S31T, A53T, N59K, L99D, S101R, R102K
VL: B18 VL with Q1H, S2V, V3I, A8R
notes: phage scFv
B20: hN1S3-052 (scFv, V domains shown)
VH: QVQLVQSGAEVKKPGASVRISCKTSGFTFTSYFIHWVRQAPGQRPEWMGVINPSRGNADYAPRFRGRVTMTRDKSTHTVYMDLKSLRSDDAAIYYCARDRLGGLLDYYDSSDSSKNFDAFDFWGQGTLVTVSS
VL: QAVLTQPSLASGTPGQRVTISCSGGSSNIGRHTVNWYQQLPGAAPKLLMHSSDQRPSGVPDRFSGSKSGTSASLAISGLQSEDEADYYCAAWDASLKNWVFGGGTKLTVL
notes: phage scFv
B21: hN1S3-067 (scFv, V domains shown)
VH: B20 VH with Q1E
VL: NFMLTQPHSVSESPGKTVIISCTRSSGSIASNYVQWLQQRPGSSPTTVIYDDNRRPSGVPDRFSGSIDGSSNSASLTISGLKTEDEADYYCQSYDRFDHVVFGGGTKLTVL
notes: phage scFv
B22: hN1S3-073 (scFv, V domains shown)
VH: B20 VH
VL: DIQMTQSPSSLSAFVGDRVTITCRASQGINNYLAWFQQKPGKAPKSLIYAASTLRSGVPPRFSGSGSGTDFTLTISSLQPEDFATYYCQQYDSYPHTFGQGTRLEIK
notes: phage scFv
B23: N1wc33 (scFv, V domains shown)
VH: EVQLVESGGDLVQPGGSLRLSCAASGFTFSDSWMHWVRQVPGKGLEWVSHIGIDGITTNYADSVKGRFTISRDNAKNTLYLQMNNLRAEDTAVYYCARNVGWESRPWGQGTLVTVSS
VL: SYVLTQPPSASGAPGQRVTISCSGSDSNIGRNTVNWYQQQLPGTAPTLLIYTNNQRPSGVPDRFSGSKSGTSASLAISGLQSGDEADYYCAAWDDSLNAYFFGPGTKLTVL
notes: phage scFv
B24: N1wc137 (scFv, V domains shown)
VH: QVQLVQSGAEVKKPGASVKVSCKASGYTFTNYGLSWVRQAPGQGLEWMGWISGYNDNTSYAQKFQDRITMTTDTSTSTASMELRSLRSDDTAVYYCAFSYYDSSGYFNWGQGTMVTVSS
VL: QAVLTQPSSVSGAPGQRVTVSCTGSSSNIGTGYAVHWYQQLPGTAPRLLIFGNNNRPSGVPDRFSGSKSGTSASLVITGLQAEDEADYYCQSFDTLSGSRVFGGGTKVTVL
notes: phage scFv

Each binder was assayed against T1, human full-length Notch1 with C-terminal FLAG tag, stably expressed on 293 FlpIn (TREx) cells (human, UniProt P46531 19-2555) (assay: FACS, phage scFv).
T1 construct: tetracycline/doxycycline-induced expression from pcDNA5/FRT/TO-HN1+FLAG; also called hN1; 293_N1
B1: binds. B2: binds. B3: binds. B4: binds. B5: binds. B6: binds. B7: binds. B8: binds. B9: binds. B10: binds. B11: binds. B12: binds. B13: binds. B14: binds. B15: binds. B16: binds. B17: binds. B18: binds. B19: binds. B20: binds. B21: binds. B22: binds. B23: binds. B24: binds.
